Test [1] has as its target human B7-H3 protein (human) (UniProt Q5ZPR3). Description: Octet (BLI) epitope binning on captured human B7-H3; competitor CA84D.
Test [2] shares this target. Description: Octet (BLI) epitope binning on captured human B7-H3; competitor 72D1D11. (Biolayer interferometry detects binding as a change in optical thickness at a sensor tip.)
For test [3] the target is unchanged. Put plainly: Octet (BLI) epitope binning on captured human B7-H3; competitor AHP05562.
For test [4] the target is unchanged. Put plainly: Octet (BLI) epitope binning on captured human B7-H3; competitor AHP06345.
The target of test [5] is human B7-H3 expressed on A375 tumor cells (human) (UniProt Q5ZPR3). Put plainly: flow cytometry on A375 cells, MFI(PE); unit from the axis Conc (nM).
Test [6] has as its target human B7-H3 (4Ig) protein (his tag) (human) (UniProt Q5ZPR3). Description: SPR (Biacore T200), antibody captured on Protein A chip, B7-H3 injected, 1:1 model. (SPR reads the build-up and loss of mass on a sensor chip optically.)
Test [7] has as its target human B7-H3 expressed on A375 tumor cells (human) (UniProt Q5ZPR3). Description: flow cytometry on A375 cells, MFI(PE); unit from the axis Conc (nM). The source holds these as a separate data set.

Read-outs that look alike come from different tables or passages of the source.

B1: 216E7A9 (antibody, V domains shown)
VH: DVQLVESGGGLVQPGGSRKLSCAASGFTFSSFGMHWVRQAPEKGLEWVAYISSGSSTIYYADTVRGRFTISRDNPKNTLFLQMTSLRSEDTAMYYCARGGDYYYALDYWGQGTSVTVSS
VL: DIQMTQSPASLSVSVGETVTITCRASENIHSNLEWYQQKQGKSPQLLVYAATNLADGVPSRFSGSGSGTQYSLKINSLQSEDFGSYYCQHFWGTPFTFGSGTKLEIK
With B1, the inhibition ratio came to 5.28% in test [1], 98% in test [2], 92.3% in test [3] and 1.99% in test [4]. For the same molecule, in test [5], the EC50 (as a rule, the concentration needed to bring the measured effect to its halfway point) was found to be 0.08 nM. Moreover, the Kd (commonly a measure of binding affinity in units of concentration) in test [6] was 2.49 nM. The koff – broadly, a measure of how fast the partners let go of each other – in test [6] worked out at 0.000824 s⁻¹. In test [6], the kon (usually a measure of how fast the partners come together) turned out to be 331000 M⁻¹ s⁻¹.

B2: AHP06358 (antibody, V domains shown)
VH: EVQLVQSGAEVKKPGASVKVSCKASGYTFTSYGISWVRQAPGQGLEWMGWISAYNGNTNYAQKLQGRVTMTTDTSTSTAYMELRSLRSDDTAVYYCARDSPLQIAVAGYYYGMDVWGQGTTVTVSS
VL: NFMLTQPHSVSESPGKTVTISCTRSSGSIVSGYVQWYQQRPGSAPSTVIYEHNQRPSGVPDRFSGSIDSSSNSASLTISGLRTEDEADYYCQSYDSRNMIFGGGTKLTVL
As to B2, the inhibition ratio in test [1] is -13.6%; in test [2] it was -13.9%; in test [3], 91.7%; in test [4], -10.6%. Also, the concentration giving a half-maximal response (EC50) in test [5] was found to be 2.4 nM. In test [6], the Kd turned out to be 0.738 nM. In test [6], this molecule showed a koff of 0.00396 s⁻¹. Also, in test [6], the on-rate constant (kon) turned out to be 5.37e+06 M⁻¹ s⁻¹.

B3: 227E12D1 (antibody, V domains shown)
VH: EVKLVESGGGLVKPGGSLKLSCAASGFTFSSYGMSWVRQTPEKRLEWVATISGGGTYTYYPDSVKGRFTISRDNAKNNLYLQMSSLRSDDTALYYCARHEGLVMDYWGQGTSVTVSS
VL: DIQMTQSPASLSASVGETVTITCRASENIYSYLAWYQQKQGKSPQLVVYNAKTLAEGVPSRFSGSGSGTQFSLKINSLQPEDFGTYYCQHHYGPPPYTFGGGTKLEIK
Take B3: the inhibition ratio in test [1] is -5.46%; in test [2] it was 97.1%; in test [3], 90%; in test [4], -5.22%. In addition, the 50% effective concentration (EC50) in test [5] was 0.093 nM. Further, the Kd in test [6] was 0.619 nM. The molecule further registered a koff in test [6] of 0.000368 s⁻¹. The molecule also gave a kon in test [6] of 595000 M⁻¹ s⁻¹.

B4: 62H9H5 (antibody, V domains shown)
VH: QVQLQQSGAELAKPGASVKMSCKASGYTFTNYWIHWVKQRPGQGLEWIGYISPSTGYTEYNQKFKGKATLTAVKSSSTAFMQLSSLTSEDSAVYFCARGTGYWGQGTTLTVSS
VL: DIQMTQSPASLSASVGESVTITCRASENIYSFFAWYQQKEGKSPQLLVYNAKTLEEGVPSRFSGSGSGTQFSLKINSLQPEDFGSYYCQHNYVSPFTFGSGTKLEIK
For the molecule B4, the inhibition ratio in test [1] was -6.07%; in test [2] it was 95.5%; in test [3] it was 90.2%; in test [4], -7.1%. This molecule showed an EC50 in test [5] of 0.042 nM. Moreover, the dissociation constant Kd in test [6] amounted to 0.464 nM. Besides, in test [6], the dissociation rate constant (koff) came out at 0.00016 s⁻¹. The molecule further showed a kon in test [6] of 346000 M⁻¹ s⁻¹.

B5: 72D1D11-z1 (antibody, V domains shown)
VH: QVQLVQSGSELKKPGASVKVSCKASGYTFTNLGLNWVRQAPGQGLEWMGWINTAGGQPTYAEDFKGRFVFSLDTSVSTAYLQISSLKAEDTAVYYCARDDGYYYTMDYWGQGTTVTVSS
VL: DIVMTQTPLSLPVTPGEPASISCRSSQSLVHSNGKTYLHWYLQKPGQSPQLLIYKVSNRFSGVPDRFSGSGSGTDFTLKISRVEAEDVGVYYCSQSTHVPWTFGGGTKLEIK
In test [7], B5 registered a half-maximal effective concentration (EC50) of 0.63 nM.

B6: 72D1D11-z4 (antibody, V domains shown)
VH: QVQLVQSGSELKKPGASVKVSCKASGYTFTNLGLNWVRQAPGQGLEWMGWINTAGGQPTYAEDFKGRFVFSLDTSVSTAYLQISSLKAEDTAVYYCARDDGYYYTMDYWGQGTTVTVSS
VL: DIVMTQSPLSLPVTPGEPASISCRSSQSLVHSNGKTYLHWYLQKPGQSPQLLIYKVSNRFSGVPDRFSGSGSGTDFTLKISRVEAEDVGVYFCSQSTHVPWTFGGGTKLEIK
Molecule B6 displayed an EC50 in test [7] of 0.49 nM.

B7: 72D1D11-z2 (antibody, V domains shown)
VH: QVQLVQSGSELKKPGASVKVSCKASGYTFTNLGLNWVRQAPGQGLEWMGWINTAGGQPTYAEDFKGRFVFSLDTSVSTAYLQISSLKAEDTAVYYCARDDGYYYTMDYWGQGTTVTVSS
VL: DIVMTQTPLSLPVTPGEPASISCRSSQSLVHSNGKTYLHWYLQKPGQSPQLLIYKVSNRFSGVPDRFSGSGSGTDFTLKISRVEAEDVGVYFCSQSTHVPWTFGGGTKLEIK
B7: in test [7], the EC50 was 0.52 nM.

B8: 72D1D11-z6 (antibody, V domains shown)
VH: QVQLVQSGSELKKPGASVKVSCKASGYTFTNLGLNWVRQAPGQGLEWMGWINTAGGQPTYAEDFKGRCVFSLDTSVSTAYLQISSLKAEDTAVYYCARDDGYYYTMDYWGQGTTVTVSS
VL: DIVMTQTPLSLPVTPGEPASISCRSSQSLVHSNGKTYLHWYLQKPGQSPQLLIYKVSNRFSGVPDRFSGSGSGTDFTLKISRVEAEDVGVYFCSQSTHVPWTFGGGTKLEIK
B8 showed an EC50 in test [7] of 0.54 nM.

B9: 72D1D11-z5 (antibody, V domains shown)
VH: QVQLVQSGSELKKPGASVKVSCKASGYTFTNLGLNWVRQAPGQGLEWMGWINTAGGQPTYAEDFKGRCVFSLDTSVSTAYLQISSLKAEDTAVYYCARDDGYYYTMDYWGQGTTVTVSS
VL: DIVMTQTPLSLPVTPGEPASISCRSSQSLVHSNGKTYLHWYLQKPGQSPQLLIYKVSNRFSGVPDRFSGSGSGTDFTLKISRVEAEDVGVYYCSQSTHVPWTFGGGTKLEIK
For the molecule B9, the half-maximal effective concentration (EC50) in test [7] worked out at 0.51 nM.

B10: 72D1D11-z3p2 (antibody, V domains shown)
VH: QVQLVQSGSELKKPGASVKVSCKASGYTFTNLGLNWVRQAPGQGLEWMGWINTAGGQPTYAEDFKGRFVFSLDTSVSTAYLQISSLKAEDTAVYYCARDDGYYYTMDYWGQGTTVTVSS
VL: DIVMTQSPLSLPVTPGEPASISCRSSQSLVHSQGKTYLHWYLQKPGQSPQLLIYKVSNRFSGVPDRFSGSGSGTDFTLKISRVEAEDVGVYYCSQSTHVPWTFGGGTKLEIK
In test [5], B10 returned an EC50 of 0.3 nM.

B11: 72D1D11-z3p1 (antibody, V domains shown)
VH: QVQLVQSGSELKKPGASVKVSCKASGYTFTNLGLNWVRQAPGQGLEWMGWINTAGGQPTYAEDFKGRFVFSLDTSVSTAYLQISSLKAEDTAVYYCARDDGYYYTMDYWGQGTTVTVSS
VL: DIVMTQSPLSLPVTPGEPASISCRSSQSLVHSNAKTYLHWYLQKPGQSPQLLIYKVSNRFSGVPDRFSGSGSGTDFTLKISRVEAEDVGVYYCSQSTHVPWTFGGGTKLEIK
Consider B11, for which the 50% effective concentration (EC50) in test [5] came to 0.36 nM.

B12: 294A3C4 (antibody, V domains shown)
VH: QVQLQQPGAELVKPGASVKLSCKASGYTFTSYWMHWVKQRPGQGLEWIGMFHPNSGTTNYNEKFKSKATLTVDKSSSTAYMQLSSLTSEDSAVYYCARRLGIFFDYWGQGTTLTVSS
VL: DIVMTQSPSSLTVTAGEKVTMSCRSSQSLLNSGNQKNYLTWYQQKPGQPPKLLIYWASTRDSGVPDRFTGSGSGTDFTLTISSVQTEDLAVYYCQTDYSYPFTFGSGTKLEIK
With B12, the inhibition ratio in test [1] is -12%; in test [2] it was -5%; in test [3], 90%; in test [4], -7.53%. This molecule yielded a concentration giving a half-maximal response (EC50) in test [5] of 0.087 nM. Besides, the Kd in test [6] was 2.92 nM. The molecule further registered a koff in test [6] of 0.00135 s⁻¹. This molecule also showed a kon in test [6] of 463000 M⁻¹ s⁻¹.

B13: 97E6B2 (antibody, V domains shown)
VH: QVQLQQPGAELVKPGASVKMSCKASGYTFTSYWITWVKQRPGQGLEWIGDIYPGSNNTYYNEKFKSKATLTVDTSSSTAYIQLSSLTSEDSAVYYCARLIMSLFDYSGQGTTLTVSS
VL: ENVLTQSPANMSASPGEKVTMTCSVSSSVSYIHWYQQKSSTSPTLWIYDTSKLASGVPGRFSGSGSGNSYALTISSMEAEDVATYYCFQGSAYPLTFGAGTKLELK
For B13, the inhibition ratio in test [1] was -3.99%; in test [2], 99.7%; in test [3], -7.8%; in test [4], -1.18%. For the same molecule, the EC50 in test [5] turned out to be 0.26 nM. The molecule further showed a Kd in test [6] of 0.743 nM. In addition, in test [6], the koff was 0.000481 s⁻¹. Moreover, the on-rate (kon) in test [6] was 647000 M⁻¹ s⁻¹.

B14: 106A5B3 (antibody, V domains shown)
VH: EVQLVESGGDLVKPGGSLKLSCAASGFTFSSYGMSWVRQTPDKRLEWVATISSGGSYIYYPDSMKGRFTISRDNAKNTLYLQMSSLQSEDTAIYYCASDYGSRYFDYWGQGTTLTVSS
VL: QIVLTQSPAIMSASPGEKVTMTCSASSSVIYMSWYKQKPGSSPRLLIYDTSNLASGVPVRFSGSGSGTSYSLTISRMEAEDAATYYCQQWSSYPRTFGGGTKLEIK
Regarding B14, the inhibition ratio in test [1] was -15.8%; in test [2], 96.8%; in test [3], 89.6%; in test [4], -13%. In test [5], the EC50 was determined as 0.1 nM. The molecule also registered a Kd in test [6] of 0.476 nM. This molecule also returned a koff in test [6] of 0.000396 s⁻¹. The molecule further gave an on-rate constant (kon) in test [6] of 833000 M⁻¹ s⁻¹.

B15: 126C10B10 (antibody, V domains shown)
VH: GVQLQQSGAELVKPGASVKLSCTGSGFNIKDPYIHWVKQRPEQGLEWIGRIDPANGNTKYGPRFQGRATMTADTSSNTANLQLSSLTSEDTAVYYCTTWNYYLSRGFDYWGQGTTLTVSS
VL: QIVLTQSPAIMSASPGEKVTMTCSARSSVTYMHWYQQKSGTSPKRWIYDTSKLASGVPARFSGSGSGTSYSLTISSMEAEDAATYYCQQWTSNPLTFGAGTKLELK
For B15, the inhibition ratio in test [1] is -9.58%; in test [2], 96.6%; in test [3], -22.2%; in test [4], -5.98%. Besides, the concentration giving a half-maximal response (EC50) in test [5] was 0.22 nM. In test [6], this molecule yielded a dissociation constant (Kd) of 0.837 nM. The koff in test [6] was found to be 0.000367 s⁻¹. The molecule also showed an on-rate (kon) in test [6] of 438000 M⁻¹ s⁻¹.

The values are drawn from patent US20250313632A1.
